Results: the supplement of paper PMC12042874
± gives the uncertainty stated by the source.

Experiment: amyloid nucleation score (Sup35N fusion, yeast selection) (log enrichment); library NNK1; higher = more nucleation; inactive = no reads after selection
Procedure, shortened: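 Peptides of 20 random codons fused to Sup35N were expressed in psi-negative yeast, induced 24 hours with 100 μM copper sulfate, then grown 7 days at 30°C on medium lacking adenine and uracil. Input and output plasmid inserts were Illumina-sequenced. Nucleation score is the DiMSum log enrichment of output over input reads, centred on the mode score of non-aggregating sequences, excluding sequences with under 100 input reads. Random libraries had three technical output replicates.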
Work on CLFFNYRVIEFNTPGVNMFW yielded an amyloid nucleation score of 0.739 ± 0.33. Work on DISMLRKKSCKHTVNMMSL yielded an amyloid nucleation score of -0.431 ± 0.27. In the case of DAIHVWCICRKSLVFILRNS, the amyloid nucleation score is reported as 0.086 ± 1. With DTLPRFRSRNSIVRNLSKNG the amyloid nucleation score was “inactive”. Work on SRLSQDPRTSSAIMSWLRYS yielded an amyloid nucleation score of 0.886 ± 1.1. Work on SNKRNYRLE yielded an amyloid nucleation score of 0.401 ± 0.62. RVILFFRFIAILEDCATVSF showed an amyloid nucleation score of -0.544 ± 0.25. Work on SCWNSCNKMSF yielded an amyloid nucleation score of 2.87 ± 0.24. GTNWDMLCYIVLTYGVVRAF showed an amyloid nucleation score of -0.116 ± 0.51. For PFWAGG, the amyloid nucleation score was “inactive”. LHSQKGILSLSSPI showed an amyloid nucleation score of -0.223 ± 0.32. Substance GFAWYDYMLQYIVVLVGLYN has an amyloid nucleation score of -0.159 ± 1.4. YVRRSCSSRESYSCNCLYVY showed an amyloid nucleation score of 0.532 ± 0.92. With MTSCDWTTTKSSDVAPDWRM the amyloid nucleation score was 0.424 ± 0.52. For VYRDLVDAYVTDYMCWGAPG, the amyloid nucleation score was “inactive”. CPLAIVDTVHCRNSSSFSQ showed an amyloid nucleation score of -0.488 ± 0.45. Work on RIVISCRFEYGLGVGSSGVP yielded an amyloid nucleation score of 0.156 ± 1.6. SHIFRWNTCRMEIRWYNQYY gave an amyloid nucleation score of 1.14 ± 0.71. NIGIMNFIVLAFLQ gave an amyloid nucleation score of 6.529 ± 0.062. In the case of GGDGVKVVIGLHGWFASGYL, the amyloid nucleation score is reported as 1.24 ± 0.3. With KFDLYRTWCSSLRFGRYWRV the amyloid nucleation score was 1.23 ± 0.59. With AGFSTHSSGCVGECVGQRT the amyloid nucleation score was 0.32 ± 0.69. VADFSL gave an amyloid nucleation score of 1.44 ± 0.53. Substance KYCVN has an amyloid nucleation score of -0.403 ± 0.38. For GSLIIHHQWFFVIAMRVSLS, the amyloid nucleation score was 0.419 ± 0.53. With RGHAFLFVLYTFQLKAYAS the amyloid nucleation score was -0.033 ± 0.3. Substance TSTRRHYRVFARAQQEQNSP has an amyloid nucleation score of 0.869 ± 0.49. With SYPESTTRNF the amyloid nucleation score was -0.209 ± 0.39. In the case of FLNNLAGWGYPCFTGVYANA, the amyloid nucleation score is reported as -0.195 ± 0.39. MGGWNGNGIFCAYIYM gave an amyloid nucleation score of 0.344 ± 0.15. Work on SRCLMRMTAPQVQEGACAVC yielded an amyloid nucleation score of -0.268 ± 0.38. In the case of HGLVNG, the amyloid nucleation score is reported as 0.437 ± 0.52. With GAVICICCIIIGKYC the amyloid nucleation score was 3.74 ± 0.082. Substance YPLPV has an amyloid nucleation score of 0.376 ± 0.28. With VLTWMDVTDLLGCVLKLSPV the amyloid nucleation score was 1.36 ± 0.45. Substance RLYWSCCDRVDTFLCVF has an amyloid nucleation score of 4.43 ± 0.099. For RSVPLFDHPWNRVTLRFSIL, the amyloid nucleation score was 0.714 ± 0.47. Work on IGACVMQVNLCQSSGVSSYL yielded an amyloid nucleation score of 5.72 ± 0.062. VTLPSAMQGSHFTWGPNVAF gave an amyloid nucleation score of -0.422 ± 1.2. For LELLMVKILSSLYDIMIFCC, the amyloid nucleation score was “inactive”. In the case of MWRKHR, the amyloid nucleation score is reported as -0.543 ± 0.65. With DRYCGYWNGTSSCMICGRVV the amyloid nucleation score was 1.1 ± 0.69. For LVPVITWK, the amyloid nucleation score was 4.3 ± 0.13. VKCGLG showed an amyloid nucleation score of 0.696 ± 0.84. DMEYGGKRHNNCSDLIITNC showed an amyloid nucleation score of -0.726 ± 1.1. Work on LCITQKYRFSLHNLHQPTDW yielded an amyloid nucleation score of 1.93 ± 0.45. With VADGYIHARSCRYFKNIIVR the amyloid nucleation score was -1 ± 1.2. In the case of RSMGKIMIRENQRSLVMLSH, the amyloid nucleation score is reported as 0.522 ± 0.57. In the case of WHAHFEFNMLGILCRHFCSL, the amyloid nucleation score is reported as 3.19 ± 0.16. Substance ILKDVFIITVISSCSITSKL has an amyloid nucleation score of 2.37 ± 0.18. Work on PLELPVVFIMSDFSFWRRAQ yielded an amyloid nucleation score of 0.555 ± 0.53. LWLTHKCYCLDSNTCIKCEL gave an amyloid nucleation score of -0.312 ± 0.38. NTLSISDSYVEYETWEVIPV gave an amyloid nucleation score of 1.62 ± 0.5. RSMWICLWACYNLMVIRWPG gave an amyloid nucleation score of -0.446 ± 0.54. With SRTYPVDMFPMSLKLSINVL the amyloid nucleation score was -0.125 ± 0.79. CSAYGKNTMGSESPVMSMAS showed an amyloid nucleation score of 0.368 ± 0.72. In the case of VNRFANVLRR, the amyloid nucleation score is reported as 0.234 ± 0.29. Substance RNSMQILASLNNMDQRPLWR has an amyloid nucleation score of 1.51 ± 0.51. Work on AFMDKLMSPGEVIEVAL yielded an amyloid nucleation score of 1.29 ± 0.84. Work on VKSGALKYRKIGAYGTGSRL yielded an amyloid nucleation score of 0.728 ± 1.2. In the case of DVEIFTISWVKEVVYRDTWA, the amyloid nucleation score is reported as 1.59 ± 0.7. Substance PFGVVGDVFQSTLC has an amyloid nucleation score of 0.371 ± 0.84. Work on CRLESGHYLCSHGRVSGLR yielded an amyloid nucleation score of 0.796 ± 0.38. With VSGVYLRFRASCRSY the amyloid nucleation score was -0.105 ± 0.58. Work on RMFNQAI yielded an amyloid nucleation score of -0.394 ± 0.74. Substance RSFVNARSSYDVGFFGWNGC has an amyloid nucleation score of 2.29 ± 0.14. Substance RDFRYCFRCVIINMHRDHFQ has an amyloid nucleation score of 3.99 ± 0.06. For EAFRLCGLVRACVAFCG, the amyloid nucleation score was 0.116 ± 0.3. Substance SGPFSTYMTRFFLDFGSVDC has an amyloid nucleation score of -1.71 ± 2.4. In the case of NFFVDDSDRGQYKFDPFCCG, the amyloid nucleation score is reported as “inactive”. Substance FDLGHCIDSRRPGLCVMVLV has an amyloid nucleation score of 0.035 ± 0.34. Work on GKSCGHFWGRLNEGGQKLRV yielded an amyloid nucleation score of -0.772 ± 0.64. Substance SQMLELVFK has an amyloid nucleation score of 0.818 ± 0.75. FNIIASPSWVSVRNHGNLWV showed an amyloid nucleation score of 4.91 ± 0.062. With FHMENALISLGCSSGLRQMA the amyloid nucleation score was 0.803 ± 0.54. PLYSYADEVVDGKGSCERNC gave an amyloid nucleation score of 0.946 ± 0.5. In the case of LDFIKWAYNWCRLIVGIGGC, the amyloid nucleation score is reported as -0.476 ± 1.9. For VSCLNLIVSWYYANFGN, the amyloid nucleation score was -0.17 ± 0.32. NLCFLITNYINRLNFYNFVV gave an amyloid nucleation score of 0.807 ± 0.93. Substance WCYFVRDGVGVGEVTCPRQR has an amyloid nucleation score of 0.273 ± 0.54. For VRVLGVIMYARLLPVGLWGY, the amyloid nucleation score was “inactive”. For SSITVITVATQVEYNTVHDF, the amyloid nucleation score was 1.37 ± 0.45. VAATGNYIIIDNVRLVHAFG showed an amyloid nucleation score of -0.987 ± 0.67. In the case of HMNVPIDRSLGSFFFAKVMK, the amyloid nucleation score is reported as 0.867 ± 0.2. With RGYQTSGLT the amyloid nucleation score was -0.756 ± 2.4.
